In US9339557B2, “Photosensitizer-metal nanoparticle complex and composition containing the complex for photodynamic therapy or diagnosis” (NATIONAL CANCER CENTER, priority 2009, dated 2016):

Legend:
Assay type in all cases: cell-based, human
[1] = test system: BT20 cells; test: Cell viability after photodynamic therapy (MTT), cell line BT20; conditions: 5 μM equivalent of photosensitizer, 15 hours, +PDT laser 670 nm, 40 mW/cm^2, 10 J/cm^2, MTT after 24 hours
Protocol: 9,000 BT20 cells were seeded in each well of 96-well plates. The next day, the photosensitizer-polypeptide conjugate prepared in Preparation Example 2 and the photosensitizer-metal nanoparticle complex prepared in Preparation Example 2 were diluted with a cell culture medium, thereby preparing an MMP2 probe (MMP2P) solution and a photosensitizer-metal nanoparticle complex (MMP2P-GNR) solution, which have a final concentration corresponding to 5 μM equivalent weight of the photosensitizer. Each solution was added at 200 μl per well to some wells, and the plate was maintained at 37° C. for 15 hours. Meanwhile, for the control group, the same volume of a fresh culture medium in which the photosensitizer was not included was added. Afterwards, the cells were washed twice with a cell culture medium, and for a photodynamic therapy (PDT) group, photodynamic therapy was performed using laser at 670 nm under conditions including a light dose density of 40 mW/cm^2, and a light dose of 10 J/cm^2. After 24 hours, cell viability was measured by MTT analysis.

[2] = test system: HT1080 cells; test: Cell viability after photodynamic therapy (MTT), cell line HT1080; conditions: 5 μM equivalent of photosensitizer, 15 hours, +PDT laser 670 nm, 40 mW/cm^2, 10 J/cm^2, MTT after 24 hours
Protocol: For in vitro phototoxicity tests 9,000 HT1080 cells were seeded in each well of 96-well plates. The next day, the photosensitizer-polypeptide conjugate (MMP2P) prepared in Preparation Example 2 and the photosensitizer-metal nanoparticle complex (MMP2P-GNR) prepared in Preparation Example 3 were diluted with a cell culture medium, respectively, thereby preparing an MMP2 probe (MMP2P) solution and a photosensitizer-metal nanoparticle complex (MMP2P-GNR) solution, each of which has a final concentration corresponding to 5 μM equivalent weight of the photosensitizer. Each solution was added at 200 μl per well to some wells, and the plate was maintained at 37° C. for 15 hours. Meanwhile, for the control group, the same volume of a fresh culture medium in which the photosensitizer is not included was added to the other wells. Afterwards, the cells were washed twice with a cell culture medium, and for a photodynamic therapy (PDT) group, photodynamic therapy was carried out using laser at 670 nm under conditions including a dose density of 40 mW/cm^2 and a dose of 10 J/cm^2. After 24 hours, cell viability was measured by MTT analysis.

[3] = test system: HT1080 cells overexpressing MMP2; test: Fluorescence activation of photosensitizer-metal nanoparticle complex, confocal microscopy; conditions: HT1080 (MMP2 overexpressing) compared with BT20 (MMP2 underexpressing); 5 μM equivalent of photosensitizer, 15 hours, 37° C.; Ex. 405 nm, Em. 646-753 nm
Protocol: HT1080 cells (human fibrosarcoma cell line) overexpressing MMP2 and BT20 cells (human mammary adenocarcinoma cell line) underexpressing MMP2 (see Bremer C. et al., Nature Medicine 7(6) 743-748, 2001) were obtained from ATCC (Manassas, Va.). MMP2-positive HT1080 (90,000 cells) and MMP2-negative BT20 cells (90,000 cells) in culture media were seeded into each wells of LabTek II Chambered Coverglass. Afterwards, the photosensitizer-metal nanoparticle complex solution prepared in Preparation Example 2 was diluted with a culture medium to have 5 μM equivalent weight of the photosensitizer, and added at 600 μl per well. The cells were incubated in an incubator at 37° C. for 15 hours. After the culture medium including the complex was removed, and the cells were washed three times with a fresh culture medium, fluorescence was observed using a confocal microscope (Ex. 405 nm, Em. 646-753 nm).

MMP2P-GNR (CGGPLGVRGK)
cell viability [1]: 63% | cell viability [2]: 16% | fluorescence in cells [3]: much stronger fluorescence
